B1: TPR t1 (parent)
chain: GACCAAUCUGCCCUCAGAGCUCGAGAACAUCUUCGGAUGCAGAGGAGGCAGGCUUCGGUGGCGCGAUAGCGCCAACGUCCUCAACCUCCAAUGCAUCCCACCACAUGAUGAUGCCUGAAGAGCCUUGGUUUUUUG

Variants of: B1
Experiment: polymerase ribozyme fitness, log enrichment relative to wild type (log ratio); higher = more active; in vitro selection for triplet polymerase activity
Method in brief: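 One round of in vitro selection, in triplicate, was applied to PCR-built, transcribed mutant libraries of each subunit of a heterodimeric triplet polymerase ribozyme. The steps were annealing with a biotinylated primer, partner subunit and triplets, incubation frozen at −7 °C, gel excision of extended constructs, streptavidin-bead capture and RT-PCR. Fitness is the logarithm, base 2, of genotype enrichment over wild-type enrichment from inverse-variance-weighted replicate averages of Illumina-sequenced inputs and outputs, keeping genotypes with ≥10 input reads and ≥1 read per output.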

Variant	polymerase ribozyme fitness (log ratio)
U9G C15U A90G C124A	1.55
U9G G45U A74C G77A U112C	0.536
U9G G65C	-5.24
U9G C40U U54A C85A	-1.24
U9G G61A C80A A95C G110U C115A A119C	-7.18
U9G C13U C104A	-1.55
U9G A37U A100C	-0.694
U9G A41U G71A U81C U96A	-5.71
U9G C80U U106C	0.49
U9G C80A	-2.27
U9G A66C C104U	-0.809
U9G C15U U21C A83C	-0.505
U9G G47C G60C A83C	-3.63
U9G G36A	-0.196
U9G G77A	0.17
U9G A37U C40U G45A C104U	-0.895
U9G C11A U87A	-0.55
U9G C22G C34G G69U	-3.72
U9G C88A	-0.00805
U9G C88U	-0.0494
U9G G42C A103G C124A	-6.09
U9G C13U A91U G113A A119C G128A	-4.02
U9G G47C C80U	-3.21
U9G C53G C115A G127U	-0.417

Variant	polymerase ribozyme fitness (log ratio)
U9G A26C A37G A111U U131C	-5.09
U9G C11U A27G G47C U78C C86U	-2.22
U9G A24G C73U	-0.355
U9G A84C C98A C123A	-4.03
U9G G17C A26G	-3.96
U9G A83C C85U A121C U130C	1.97
U9G G23A	-5.2
U9G G52U C82U	-1.33
U9G G45C C79A U130C	-2.2
U9G C13A	-0.971
U9G C34A C73A G120C	-0.727
U9G A26C	-4.47
U9G G51U G63C	-3.1
U9G C53A G71U C86U A100U G110U	-4.22
U9G A43G C49A U81A G127U U133G	-2.11
U9G C72U	0.16
U9G C85U C97A C115G	-4.92
U9G G60C U116A	-1.45
U9G G10C A29U G42U A43G A46C C94U	-4.04
U9G A46C U87A G93C C115A U116C A119C	-3.97
U9G A41U A95C U131A	-1.93
U9G G23U A43U G71A G110C C124G U126G	-8.22
U9G A26G G45U C73U C99U U112A	-4.85
U9G C28A U133A	-4.24

Variant	polymerase ribozyme fitness (log ratio)
U9G G69U	0.642
U9G G48U C49U C73G G120U	0.0812
U9G C11A U54G	-0.122
U9G C76G A90C C101U	-1.34
U9G C97A A111G	-6.78
U9G C34A A41G	-3.4
U9G C56G G61U G93C	-3.2
U9G A100U G128A	-1.71
U9G A16C A68U U109A	-6.08
U9G G60U G77A U78C C98A G113C	-5.81
U9G A46C	-0.961
U9G G63U	-0.815
U9G C11G C40U	-4.28
U9G G10U C70G U109G	-6.73
U9G C70A C86A C123U	-0.996
U9G C28U G117C U131G	-4.94
U9G A29G G39U U54A A83U	-3.38
U9G G51C C56G C80G A119U	-0.301
U9G C34U A68G U78C C97U A111U	-6.62
U9G G36C G69U A103C C104U	-2.45
U9G G61A C76G	-4.18
U9G A18U C56A U87G	-2.1
U9G C13U C15A C40U G61C	-2.7
U9G C115U	-0.945

Variant	polymerase ribozyme fitness (log ratio)
U9G C13A G110A	-1.62
U9G G61U	0.804
U9G G19C C56A G69C	-6.2
U9G G71A C80U C98U G110U	-6.92
U9C U116C U129A	-0.962
U9G A27C C62U C70U C98U	-6.21
U9G G63U C64A C88A A119G	-6.72
U9G A46U G60U A91C G117A	-0.876
U9G G65C A121U	-4.76
U9G G61U C70U C82U C115U C123A	-3.33
U9G A37C G44U	-1.47
U9G G42U A121C	0.979
U9G G36A U87C C99U	-3.41
U9G C12G G60U	0.216
U9G C12G A91C G127C U129A	-2.32
U9G G23A G60A G71C G113U G135C	-5.28
U9G G93A G128A U129G	-1.96
U9G A16U G19U A37G A43U G69U C101A	-4.92
U9G A16U U59C U81A C94A	-1.92
U9G G71A	-0.592
U9G C73A	-0.668
U9G G19U G44A G58C	-3.46
U9G C11G C94U A111C	-4.33
U9G A29G G42U	-2.93

Variant	polymerase ribozyme fitness (log ratio)
U9G C31A A46C G71A G110A	-6.51
U9G G51A	-1.96
U9G C98A	-5.08
U9G C98U	-0.308
U9G A121G U131A	1.98
U9G G45A A46C U106C	-0.292
U9C U92A	-1.27
U9G A41U G61U U87A G110A	-3.56
U9G A27U A100U	-3
U9G C86G A119U	0.167
U9G A27C C114A	-3.98
U9G G45A U96G	-0.306
U9G G23A C31U U38A C104A U112A A121C U126G	-6.73
U9G C11A G39C C72G G77C A118U	-2.83
U9G A50C G63C	-1.21
U9G C70U C98U	-1.09
U9G C56G	-0.492
U9G G63A U92G C98G C115G G128A	-6.12
U9C U78G A103U	-5.95
U9G G69U G107U	-2.73
U9G G48A A111G	0.633
U9G G36U G57U	-0.893
U9G C22A C34A C82U U130C	-6.39
U9G C101U	0.459

Variant	polymerase ribozyme fitness (log ratio)
U9G C11A G63C	-0.534
U9C U81C C98A	-5.87
U9G G47A	-1.81
U9G G61A A66U C82A	-1.09
U9G G39A C86U G110U	-2.18
U9G C70A C85U A90G C102A	-4.92
U9G G93C A100U A118G	-1.35
U9G C12G U78C	0.323
U9G A37U G42A G45C A95G	-3.58
U9G C13A U59A	-0.0719
U9G A95G	0.394
U9G C97G C104U	-2.99
U9G G61A C97U A100C A108G	-2.88
U9G G107U	-3.93
U9G A41U A95C	-2.53
U9G C11A U78C	-0.41
U9G G63U G128C	-3.23
U9G	0.36
U9G A103U	-4.16
U9G C62U A74U	-0.576
U9G A83C	0.502
U9G C53A	0.283
U9G G51A G60A C94A	-3.72
U9G G47A C76A C82G U116A	-2.05

Variant	polymerase ribozyme fitness (log ratio)
U9G A37U G42C C86A U112A	-2.41
U9G C13A C28U G47U C86G	-1.92
U9G C11A A18G A41U U78G	-4.42
U9G A121U C123U	2.06
U9G C13A C22G G48A	-3.85
U9G A46G C73U A75G U96A U106G	-3.78
U9G C11G	-4.02
U9G C12A G42C G61C C115U	-3.63
U9G A27G G60A A66C U78G G113U	-6.12
U9G C12G C53A C99U C102U	-5.32
U9G C89A A100U U116A	-4.84
U9G A118U G120U G122A	1.52
U9G G39A C64U G93C C94G	-4.56
U9G C102U	-1.48
U9G C40G C53G U130G	-1.2
U9G A43U G52U C72A C82A	-2.31
U9G C31G U87A C114A	-5.66
U9G G36A C70U	-0.939
U9G C56G U81G	-1.23
U9G C56G A103U	-4.39
U9G G19A G110C U112C C123G C124G	-7.8
U9G G17A A18U A46U C73A A84G U87A U112C G127C U134A	-3.68
U9G C64U	0.223

From the RNAGym collection of RNA variant scans (doi:10.1073/pnas.2313332121)
